assay: soluble on expression in E. coli; label from the status in PepcDB or PDB records

Row | Sequence | soluble on expression in E. coli
1 | SLNEQELQDLQKMVGVAVNALGDIKAKDISVLETQDKTSLFARMIIASGDSTRQVKALANNVAVDLKEAGFEILSTEGDSGEWTLVDAGDLVVHVMLPAVRDFYDIDTLWGGEKPSFHAGMQKPWHAAD | soluble
2 | AKKAMEQILIPVANPETIENLVNLALVIKDAKQKNGMIALNVINDNNSSENKELQGKRNLEKAAMIAAAADVPVTMVSRYDLNIASGIIHTIKEYEATDVVIGLHRKANIVDSFFGNLAESLLKGTHREVMIAKFLM | not soluble
3 | MPSGLFMDLLPFLLDANLSATNPPAIPHWWKRQPLIPNLLSQELKNYLKLNVKEKNIQIADQVIIDETAGEVVIGANTRICHGAVIQGPVVIGANCLIGNWICPYISRHLLSLNPLQARCRRYSRGERLEHHHHHH | not soluble
4 | MGSDKIHHHHHHSSDYFTTNPEVLEAIGGKVPVTINGKFPEKYFKKNATVEVTPVLRWKGGEAKGQPAVFQGEKVEGNNQTIAYKAGGSYTMKASFDYVPEMANSELYLDFKITKGKKSYTIPSVKIADGVIATSELPTAASSNASYANDAFQRIIKDAQTANIMFLIQQANLRNSELNSDDIKEFHKKVAEINADTKNYKLNNIEISAYASPDGGVELNTGLAENREANTEKYMERQLKKGKIDTNLDAKYTAQDWEGFQELVSKSNLQDKDLILRVLSMYNDPEQREAEIKNISSVYKTLADEILPQLRRARLTANYDIIGRSDDEINEAFNSDPKVLSVEELLYAATLTNDNARKEAIFTKTTQLYPNDFRAYNNLGELAFAAGDAAKAESYFKQAASKNANAPEVNANLGLCELVKGNVAAAETYLGKATGANAAGEALGNLYIKQGQYDRAVNSFGDAKTNSAAQAQILAKDYNKAKATLSAIKNPDAMTDYLMAIVGARTNNASLVSSSIKSAIAKDPSMAEKAANDREFAKYADAIK | not soluble
5 | MVAKKWVYYFGGGNADGNKNMKELLGGKGANLAEMVNLGIPVPPGFTITTEACKTYQETETIPQEVADQVRENVSRVEKEMGAKFGDPANPLLFSVRSGAAASMPGMMDTVLNLGLNKVTVDAWVRRAPRLERFVYDSYRRFITMYADIVMQVGREDFEEALSRMKERRGTKFDTDLTASDLKELCDGYLELFELKTGCSFPQDPVMQLFAAIKAVFRSWGNPRATIYRRMNNITGLLGTAVNVQAMVFGNINDRSATGVAFSRSPSTGENFFFGEYLVNAQGEDVVAGIRTPQQINHSLSLRWAKAHGVGEEERRKRYPSMEEAMPENYRLLCDVRKRLENHYRDMQDLEFTVQDGRLWLLQCRNGKRTIHAAVRIAIDMVNEGLISREEAVLRIDPYQVDHLMHPNLEPGAEKANKPIGRGLAASPGAAVGQVVFDAESAKEWSGRGKKVIMVRLETSPEDLAGMDAACGILTARGGMTSHAAVVARGMGKCCVSGCGDMVIRGKSFKLNGSVFREGDYITIDGSKGLIYAGKLKLRSPDLKGSFQTILQWCQEMKRLGVRTNADTPADAAKARSFGAEGVGLCRTEHMFFEGSRINFIREMILADSASGRKAALDKLLPIQRADFVGILRAMRGLPVTIRLLDPPLHEFVPHDAAAQFELAQKLGMPAEKVRNRVNALHELNPMLGHRGCRLGITYPEIYNMQVRAIIEAAIAVSEEGSSVIPEIMVPLVGKKEELSLIREEVVKTAEAVITKSGKRVHYTVGTMIEVPRAAVTADSIAQKADFFSFGTNDLTQMGCGFSRDDAGPFLRHYGNLGIYAQDPFQSIDQEGIGELVRIAVTKGRRVKPMLKMGICGEHGGDPATIGFCHKVGLDYVSCSPFRVPVAIVAAAHASIKDRRAAMKARKGFAAKL | soluble
6 | MGEKIMKSMEIRSSEITTSGAGTLTGYVVRWDKLSELLWGEFYEKFQRGAFTEWLAAGNDVRGLYEHDHSMLLGRTRSGTLKLEEDETGLRFELTPPDTSTGRDVIELVKRGDISGMSFGFRSRKDVWDTTTDPCVRTVLVAELYEITVTSVPAYPDSGVELARRSLYEQHPEKMPRADNRRWWADLAGV | not soluble
7 | AHHHHHHGSPKKERKVEGEEVIRVPLPEGNQLFGVVEQALGAGWMDVRCEDGKVRRCRIPGRLRRRVWIKVGDLVIVEPWPVQSDKRGDIVYRYTQTQVEWLLRKGKISQEFLTGGSLLLE | not soluble
8 | MDIDECESGAHQCSEAQTCVNFHGGYRCVDTNRCVEPYIQVSENRCLCPASNPLCRE | soluble

From the DeepSol protein solubility set
